Among the data in paper PMC11965557 (Communications Biology, 2025) are fold increase of the proportion forming heterodimer under blue light and Kd values, retold here.

Assay [1] deals with cGAS-pMag (pMag fused to the C-terminus of full-length cGAS) (UniProt Q8N884). As to the kind of experiment: dcFCCS.
The target in assay [2] is Cyclic GMP-AMP synthase (cGAS), full-length (amino acids 1-522) (UniProt Q8N884 1-522). The assay can be described thus: dcFCCS.

On to “nMagHigh1-ORF9 (nMagHigh1 fused to the N-terminus of VZV-ORF9)”, for which the fold increase of the proportion forming heterodimer under blue light in assay [1] is 5 fold.

“nMagHigh1-VP22 (nMagHigh1 fused to the N-terminus of HSV1-VP22)” registered a fold increase of the proportion forming heterodimer under blue light in assay [1] of 5 fold.

In the case of “nMagHigh1-ORF52 (nMagHigh1 fused to the N-terminus of KSHV-ORF52)”, in assay [1], the fold increase of the proportion forming heterodimer under blue light was determined as 5 fold.

B1: Varicella-Zoster virus ORF9 (VZV-ORF9) (natural protein)
chain: MASSDGDRLCRSNAVRRKTTPSYSGQYRTARRSVVVGPPDDSDDSLGYITTVGADSPSPVYADLYFEHKNTTPRVHQPNDSSGSEDDFEDIDEVVAAFREARLRHELVEDAVYENPLSVEKPSRSFTKNAAVKPKLEDSPKRAPPGAGAIASGRPISFSTAPKTATSSWCGPTPSYNKRVFCEAVRRVAAMQAQKAAEAAWNSNPPRNNAELDRLLTGAVIRITVHEGLNLIQAANEADLGEGASVSKRGHNRKTGDLQGGMGNEPMYAQVRKPKSRTDTQTTGRITNRSRARSASRTDTRK
modifications: AF488 NHS ester label
As usually defined, the Kd is the equilibrium constant for the complex coming apart. The molecule B1 had a Kd in assay [2] of around 2 µM.

B2: Herpes simplex virus type 1 VP22 (HSV1-VP22) (natural protein)
chain: MTSRRSVKSGPREVPRDEYEDLYYTPSSGMASPDSPPDTSRRGALQTRSRQRGEVRFVQYDESDYALYGGSSSEDDEHPEVPRTRRPVSGAVLSGPGPARAPPPPAGSGGAGRTPTTAPRAPRTQRVATKAPAAPAAETTRGRKSAQPESAALPDAPASTAPTRSKTPAQGLARKLHFSTAPPNPDAPWTPRVAGFNKRVFCAAVGRLAAMHARMAAVQLWDMSRPRTDEDLNELLGITTIRVTVCEGKNLLQRANELVNPDVVQDVDAATATRGRSAASRPTERPRAPARSASRPRRPVE
modifications: AF488 NHS ester label
In assay [2], B2 had a Kd of around 2 µM.
